Source: publication PMC10564760, “A human monoclonal antibody binds within the poliovirus receptor-binding site to neutralize all three serotypes” (Nature Communications, 2023)

Columns and labels:
Settings in all cases: both partners purified
[1] = molecular target: T1, Sabin inactivated poliovirus type 2 capsid (Poliovirus type 2, Sabin strain …, strain); experiment: BLI
T1 construct: also called SIPV2; ISPV2; copies: + + +

[2] = molecular target: T2, Sabin poliovirus type 1 capsid (live) (Poliovirus type 1, Sabin (live), UniProt P03301, strain, biotin (EZ-Link Micro Sulfo-NHS-Biotinylation Kit) | biotin (EZ-Link Micro Sulfo-NHS-Biotinylation Kit) | biotin (EZ-Link Micro Sulfo-NHS-Biotinylation Kit)); experiment: BLI
T2 construct: also called SPV1; Sabin serotype 1; copies: + + +

[3] = molecular target: T3, wild-type poliovirus type 2 capsid (Poliovirus type 2, wild type; strain …, strain); experiment: cryo-EM structure
T3 construct: also called WTPV2; wild-type PV2; copies: + + +
T3 chain 1: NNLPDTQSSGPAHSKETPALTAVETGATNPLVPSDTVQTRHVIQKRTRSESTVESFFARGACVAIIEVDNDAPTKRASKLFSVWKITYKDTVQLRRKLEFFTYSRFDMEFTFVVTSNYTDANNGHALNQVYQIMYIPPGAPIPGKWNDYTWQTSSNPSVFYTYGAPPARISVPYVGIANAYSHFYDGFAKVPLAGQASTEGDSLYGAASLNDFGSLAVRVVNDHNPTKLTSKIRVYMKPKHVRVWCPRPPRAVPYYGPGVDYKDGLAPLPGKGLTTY
T3 chain 2: not shown
T3 chain 3: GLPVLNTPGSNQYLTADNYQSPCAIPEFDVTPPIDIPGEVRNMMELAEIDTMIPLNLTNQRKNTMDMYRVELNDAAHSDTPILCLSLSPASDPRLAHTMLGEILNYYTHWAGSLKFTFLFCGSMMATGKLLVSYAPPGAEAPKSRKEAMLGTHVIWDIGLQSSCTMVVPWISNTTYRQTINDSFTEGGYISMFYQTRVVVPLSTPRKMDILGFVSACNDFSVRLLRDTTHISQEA

[4] = molecular target: T4, wild-type poliovirus serotype 2 capsid (Poliovirus type 2, wild type; strain …, strain); experiment: cryo-EM structure
T4 construct: also called WTPV2; wild-type PV2; copies: + + +
T4 chain 1: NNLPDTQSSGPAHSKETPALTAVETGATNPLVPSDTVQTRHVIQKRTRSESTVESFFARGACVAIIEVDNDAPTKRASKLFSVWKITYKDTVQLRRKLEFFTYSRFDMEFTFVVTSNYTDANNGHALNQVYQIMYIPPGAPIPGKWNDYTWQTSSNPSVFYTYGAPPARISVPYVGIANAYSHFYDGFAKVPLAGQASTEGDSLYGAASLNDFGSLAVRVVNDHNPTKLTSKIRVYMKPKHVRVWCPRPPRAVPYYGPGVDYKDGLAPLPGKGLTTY
T4 chain 2: not shown
T4 chain 3: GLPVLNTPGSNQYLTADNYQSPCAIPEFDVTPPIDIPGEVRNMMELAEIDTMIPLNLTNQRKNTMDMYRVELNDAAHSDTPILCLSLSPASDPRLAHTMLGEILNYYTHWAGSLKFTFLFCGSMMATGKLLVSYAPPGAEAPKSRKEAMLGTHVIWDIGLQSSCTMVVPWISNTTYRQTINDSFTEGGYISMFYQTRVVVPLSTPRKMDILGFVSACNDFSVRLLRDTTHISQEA

B1: 9H2 fragment antigen-binding (Fab) (Fab, V domains shown)
VH: LVQSGAELKKPGASVKFSCQASGFTFTTYDIHWVRQAPGQGLEWMGMISPSRDSTIYAQKFQGRVTMTSDTSTSTVYMELTSLRSEDTALYYCATASRPSAWVFRSLYTYYYMDVWGTGTTVTVSS
VL: QSALTQPASVSGSPGQSITISCTGTITDIGYYNYVSWYQQHPGKAPKLIIFDVTNRPSGVSDRFSGSKSGNTASLTISGLQAEDEGDYYCFSHRSNNIRVFGGGTKLTVL
notes: also called 9H2 Fab; Fab 9H2
Kd [1]: 2.1 µM
koff [1]: 0.483 s⁻¹
kon [1]: 230000 M⁻¹ s⁻¹
Kd [2]: 936 µM
koff [2]: 1.05 s⁻¹
kon [2]: 1120 M⁻¹ s⁻¹
binding result [3]: binds

B2: 9H2 fragment antigen-binding (Fab) (Fab, V domains shown)
VH: LVQSGAELKKPGASVKFSCQASGFTFTTYDIHWVRQAPGQGLEWMGMISPSRDSTIYAQKFQGRVTMTSDTSTSTVYMELTSLRSEDTALYYCATASRPSAWVFRSLYTYYYMDVWGTGTTVTVSS
VL: QSALTQPASVSGSPGQSITISCTGTITDIGYYNYVSWYQQHPGKAPKLIIFDVTNRPSGVSDRFSGSKSGNTASLTISGLQAEDEGDYYCFSHRSNNIRVFGGGTKLTVL
notes: also called 9H2 Fab; Fab 9H2
binding result [4]: binds
